Square brackets hold non-standard residues; d marks the D form. Ends that are not written are not given here. Hyp = O=C(O)[C@@H]1C[C@@H](O)CN1
What was measured:
Test in all cases: competitive ELISA
[1] = target: T1, peptide Gly-Glu-Pro-Gly-Asp-Asp-Gly-Pro-Ser-Gly-Ala-Glu-Gly-Pro-HyP-Gly-Pro-Gln-Gly (SEQ ID NO: 17)
T1 peptide: GEPGDDGPSGAEGP[Hyp]GPQG

[2] = target: T2, peptide Gly-Pro-Pro-Gly-Pro-Gln-Gly-Leu-Ala-Gly-Gln-Arg (SEQ ID NO: 16)
T2 peptide: GPPGPQGLAGQR

[3] = target: T3, peptide Gly-Glu-Pro-Gly-Asp-Asp-Gly-Pro-Ser-Gly-Ala-Glu-Gly-Pro-Pro-Gly-Pro-Gln-Gly (SEQ ID NO: 18)
T3 peptide: GEPGDDGPSGAEGPPGPQG

[4] = target: T4, neoepitope peptide Gly-Pro-Gln-Gly (SEQ ID NO: 15)
T4 peptide: GPQG

[5] = target: neoepitope peptide Asp-Gly-Pro-Ser-Gly-Ala-Glu-Gly-Pro-HyP-Gly-Pro-Gln-Gly (SEQ ID NO: 14) (hydroxyproline (HyP) at position 10 of the peptide (position 971))

B1: anti-neoepitope antibody 20A10 (antibody, V domains shown)
VH: QIQLVQSGPELKEPGETVRISCKASGYTFTKYGINWVKQAPGKGLEWMAWINTYSGMTTYADDFKGRFAFSLETSANTAYLQINHLKNDDTATYFCARSLGYDYGGFAYWGQGTLVTVSA
VL: DVLLTQTPLSLPVSLGDQAFISCRSGQTLVHDNENTYFHWYLQKPGQSPKLLIYKISNRFSGVPDRFSGSGSGTDFTLKISRVEPEDLGIYFCSQNTHVPFTFGSGTKLEIKR
B1 was tested, and the IC50 [1] was 20 nM, the IC50 [2] was 20200 nM and the IC50 [3] was 22 nM. The IC50 [4] was 99000 nM and the IC50 [5] was 40 nM.

— patent US20120237948A1 (published 2012)
